Assay results reported in patent US20200207873A1 (INSERM INSTITUT NATIONAL DE LA SANT ET DE LA RECHERCHE M …, published 2020).

Target: T1, full-length His-tagged pUL89 (wild-type) (human cytomegalovirus, AD169 genotype, UniProt P16732 1-674)
T1 construct: mature; It was expressed from pCI-neo His-pUL89 in HEK293 cells and purified on Ni resin; also called His-pUL89; 6xHis-pUL89; not shown: 6xHis tag
T1 sequence: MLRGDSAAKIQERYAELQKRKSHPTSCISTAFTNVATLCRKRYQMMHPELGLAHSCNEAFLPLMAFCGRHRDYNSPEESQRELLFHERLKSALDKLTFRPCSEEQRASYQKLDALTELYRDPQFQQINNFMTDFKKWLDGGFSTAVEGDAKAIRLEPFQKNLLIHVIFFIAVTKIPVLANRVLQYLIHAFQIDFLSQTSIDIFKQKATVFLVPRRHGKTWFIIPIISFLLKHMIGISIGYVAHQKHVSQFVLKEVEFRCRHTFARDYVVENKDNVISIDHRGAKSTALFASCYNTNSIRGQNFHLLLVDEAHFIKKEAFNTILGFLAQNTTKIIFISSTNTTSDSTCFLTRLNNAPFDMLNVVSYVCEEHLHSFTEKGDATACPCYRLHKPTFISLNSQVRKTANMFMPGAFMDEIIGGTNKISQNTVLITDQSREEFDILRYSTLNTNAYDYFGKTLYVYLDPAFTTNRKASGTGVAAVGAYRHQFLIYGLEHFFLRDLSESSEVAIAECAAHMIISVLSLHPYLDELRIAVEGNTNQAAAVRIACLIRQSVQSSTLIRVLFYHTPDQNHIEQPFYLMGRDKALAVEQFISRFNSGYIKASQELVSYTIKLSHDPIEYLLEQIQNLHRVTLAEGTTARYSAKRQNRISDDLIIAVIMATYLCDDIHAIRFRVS
Assay: Alpha proximity assay, purified proteins; negative controls are each protein alone

B1: full-length amino-terminal 3xHA-tagged pUL56 (wild-type) (other)
chain: MEMNLLQKLCVVCSKCNEYAMELECLKYCDPNVLLAESTPFKRNAAAIVYLYRKIYPEVVAQNRTQSSLLTLYLEMLLKALHEDTALLDRALMAYSRQPDRAAFYRTVLRLDRCDRHHTVELQFTDNVRFSVSLATLNDIERFLCKMNYVYGILAPEAGLEVCAQLLELLRRLCGISPVARQEVYVEGTTCAQCYEELTIIPNQGRSLNKRLQGLLCNHIAVHRPSSQSDVNIQTVEQDLLDLTTRIPHLAGVLSALKSLFSSSSAYHSYIQEAEEALREYNLFTDIPERIYSLSDFTYWSRTSEVIVKRVGITIQQLNVYHQLCRALMNGISRHLYGEDVEDIFVLGEKALDGEERMFVGSVFAAPNRIIDLITSLSIQAFEDNPVFNKLHESNEMYTKIKHILEEIRRPLPDGTGGDGPEGEAIHLRGREAMSGTGTTLMTASNSSNSSTHSQRNNGGGGRARGGGKKAVGGGANGQDGDGSENGLRVRNCDEHEALDLVDARSRIHNVTREVNVRKRAYLQKVSEVGYGKVIRCIKTQERLTSKLIDVNLVGPLCLDFISKLMNGFLYRSQYHQDQDVVDVGDQFTYDEHLYVVNNLIHKSLPVESLPLLGQQIYELCNGPLFTHCTDRYPLSHNVDMAYACDNAGVLPHVKDDLVKCAEGTVYPSEWMVVKYMGFFNFSDCQDLNVLQKEMWMHVRELVLSVALYNETFGKQLSIACLRDELHPDRDVILTYNKEWPLLLRHEGNLYKSKDLYLLLYRHLSRPDESGDVPTAPVAKPSTLTAAAAVSGAFREPDRPWLPSPYPSSSTAGVSRRVRATRKRPRRASSLLDLARDEHGIQDLVPGSLR
notes: also called 3xHA-pUL56; HA-pUL56; not shown: amino-terminal 3xHA tag
fold of Alpha signal over negative controls: > 2 fold
